# Article PMC9482650, “Quantitative fragmentomics allow affinity mapping of interactomes” (Nature Communications, 2022)
# Substitutions are numbered along the chain they refer to.
# T1: LNX2_3, Q8N448
# T1 sequence (Q8N448 463-564, limits assumed, looked up): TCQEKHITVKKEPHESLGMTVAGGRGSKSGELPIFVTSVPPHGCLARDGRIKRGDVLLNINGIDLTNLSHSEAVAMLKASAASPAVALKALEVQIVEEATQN
# T2: DVL3, Q92997
# T2 sequence (Q92997 244-331, limits assumed, looked up): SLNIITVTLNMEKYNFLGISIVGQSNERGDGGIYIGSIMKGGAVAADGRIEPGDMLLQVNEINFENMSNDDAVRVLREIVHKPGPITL
# T3: PDZD7_3, Q9H5P4
# T3 sequence (Q9H5P4 857-944, limits assumed, looked up): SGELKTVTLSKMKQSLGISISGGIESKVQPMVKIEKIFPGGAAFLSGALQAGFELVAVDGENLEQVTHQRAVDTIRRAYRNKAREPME
# T4: LIN7C, Q9NUP9
# T4 sequence (Q9NUP9 88-185, limits assumed, looked up): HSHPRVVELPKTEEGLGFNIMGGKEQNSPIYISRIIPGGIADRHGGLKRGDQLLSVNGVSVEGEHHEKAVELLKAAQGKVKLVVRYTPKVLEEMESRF
# T5: APBA3_1, O96018
# T5 sequence (O96018 389-490, limits assumed, looked up): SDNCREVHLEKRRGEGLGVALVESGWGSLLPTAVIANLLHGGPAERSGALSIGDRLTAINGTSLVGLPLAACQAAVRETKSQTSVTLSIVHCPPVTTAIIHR
# T6: MPP2, Q14168
# T6 sequence (Q14168 180-250, limits assumed, looked up): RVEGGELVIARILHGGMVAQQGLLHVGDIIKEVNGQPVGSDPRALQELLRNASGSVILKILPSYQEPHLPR
# T7: FRMPD1, Q5SYB0
# T7 sequence (Q5SYB0 52-145, limits assumed, looked up): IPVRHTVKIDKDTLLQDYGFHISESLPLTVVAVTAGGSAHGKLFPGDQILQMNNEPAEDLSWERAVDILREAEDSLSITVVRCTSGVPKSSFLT
# T8: LIN7B, Q9HAP6
# T8 sequence (Q9HAP6 88-185, limits assumed, looked up): T4 sequence (Q9NUP9 88-185, limits assumed, looked up) with S2A, E13D, I35V, I40V, H65Q, K79S, K89R, S96A
# T9: PDZD2_2, O15018
# T9 sequence (O15018 329-429, limits assumed, looked up): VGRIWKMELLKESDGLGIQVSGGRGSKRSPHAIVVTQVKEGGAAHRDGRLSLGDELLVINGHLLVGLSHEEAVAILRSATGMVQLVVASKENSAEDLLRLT
# T10: HTRA4, P83105
# T10 sequence (P83105 378-476, limits assumed, looked up): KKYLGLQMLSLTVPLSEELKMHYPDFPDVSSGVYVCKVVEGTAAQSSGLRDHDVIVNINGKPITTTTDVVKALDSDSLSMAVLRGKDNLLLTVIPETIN
# T11: GRIP1_4, Q9Y3R0
# T11 sequence (Q9Y3R0 467-571, limits assumed, looked up): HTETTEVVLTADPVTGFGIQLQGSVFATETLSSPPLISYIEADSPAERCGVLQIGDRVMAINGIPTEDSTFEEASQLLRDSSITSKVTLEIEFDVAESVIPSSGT
# Target: T1, LNX2_3, Q8N448
# Test: holdup assay
# Design: key: below the threshold = too weak to quantify, mostly under pKd 3.1 to 4
# Details: plain residues with an end cap or a label only (N-terminal biotin on a linker: ado-ado)
row,Binder,pKd
1,"PEYLGLDVPV [ERBB2, P04626]",below the threshold

# Target: Inadl_1, Q8NI35
# Test: holdup assay
# Design: key: below the threshold = too weak to quantify, mostly under pKd 3.1 to 4
# Details: plain residues with an end cap or a label only (N-terminal biotin on a linker: ado-ado)
# Sequence of Inadl_1, Q8NI35 (Q8NI35 113-229): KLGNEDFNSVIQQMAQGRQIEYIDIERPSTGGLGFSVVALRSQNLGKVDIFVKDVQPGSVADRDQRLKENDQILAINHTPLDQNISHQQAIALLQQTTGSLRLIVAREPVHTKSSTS
row,Binder,pKd
1,"PEYLGLDVPV [ERBB2, P04626]",below the threshold

# Target: DLG4_1, P78352
# Test: holdup assay
# Design: key: below the threshold = too weak to quantify, mostly under pKd 3.1 to 4
# Details: plain residues with an end cap or a label only (N-terminal biotin on a linker: ado-ado)
# Sequence of DLG4_1, P78352 (P78352 62-152): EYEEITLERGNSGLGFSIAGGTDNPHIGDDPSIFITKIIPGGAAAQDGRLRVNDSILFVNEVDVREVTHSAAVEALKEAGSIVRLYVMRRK
row,Binder,pKd
1,"PEYLGLDVPV [ERBB2, P04626]",below the threshold

# Target: ARHGEF12, Q9NZN5-2
# Test: holdup assay
# Design: key: below the threshold = too weak to quantify, mostly under pKd 3.1 to 4
# Details: plain residues with an end cap or a label only (N-terminal biotin on a linker: ado-ado)
# Sequence of ARHGEF12, Q9NZN5-2 (Q9NZN5 other isoform, or with tags, fused parts or gaps): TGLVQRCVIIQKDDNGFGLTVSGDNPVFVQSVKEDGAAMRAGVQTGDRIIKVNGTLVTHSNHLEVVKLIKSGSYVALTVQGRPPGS
row,Binder,pKd
1,"PEYLGLDVPV [ERBB2, P04626]",below the threshold

# Target: T2, DVL3, Q92997
# Test: holdup assay
# Design: key: below the threshold = too weak to quantify, mostly under pKd 3.1 to 4
# Details: plain residues with an end cap or a label only (N-terminal biotin on a linker: ado-ado)
row,Binder,pKd
1,"PEYLGLDVPV [ERBB2, P04626]",below the threshold

# Target: T3, PDZD7_3, Q9H5P4
# Test: holdup assay
# Design: key: below the threshold = too weak to quantify, mostly under pKd 3.1 to 4
# Details: plain residues with an end cap or a label only (N-terminal biotin on a linker: ado-ado)
row,Binder,pKd
1,"PEYLGLDVPV [ERBB2, P04626]",below the threshold

# Target: T4, LIN7C, Q9NUP9
# Test: holdup assay
# Design: key: below the threshold = too weak to quantify, mostly under pKd 3.1 to 4
# Details: plain residues with an end cap or a label only (N-terminal biotin on a linker: ado-ado)
row,Binder,pKd
1,"PEYLGLDVPV [ERBB2, P04626]",below the threshold

# Target: Inadl_8, Q8NI35
# Test: holdup assay
# Design: key: below the threshold = too weak to quantify, mostly under pKd 3.1 to 4
# Details: plain residues with an end cap or a label only (N-terminal biotin on a linker: ado-ado)
# Sequence of Inadl_8, Q8NI35 (Q8NI35 1425-1530): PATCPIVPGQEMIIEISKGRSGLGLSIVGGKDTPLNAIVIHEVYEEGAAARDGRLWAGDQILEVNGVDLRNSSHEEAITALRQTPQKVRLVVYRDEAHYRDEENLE
row,Binder,pKd
1,"PEYLGLDVPV [ERBB2, P04626]",below the threshold

# Target: T5, APBA3_1, O96018
# Test: holdup assay
# Design: key: below the threshold = too weak to quantify, mostly under pKd 3.1 to 4
# Details: plain residues with an end cap or a label only (N-terminal biotin on a linker: ado-ado)
row,Binder,pKd
1,"PEYLGLDVPV [ERBB2, P04626]",below the threshold

# Target: T6, MPP2, Q14168
# Test: holdup assay
# Design: key: below the threshold = too weak to quantify, mostly under pKd 3.1 to 4
# Details: plain residues with an end cap or a label only (N-terminal biotin on a linker: ado-ado)
row,Binder,pKd
1,"PEYLGLDVPV [ERBB2, P04626]",below the threshold

# Target: T7, FRMPD1, Q5SYB0
# Test: holdup assay
# Design: key: below the threshold = too weak to quantify, mostly under pKd 3.1 to 4
# Details: plain residues with an end cap or a label only (N-terminal biotin on a linker: ado-ado)
row,Binder,pKd
1,"PEYLGLDVPV [ERBB2, P04626]",below the threshold

# Target: T8, LIN7B, Q9HAP6
# Test: holdup assay
# Design: key: below the threshold = too weak to quantify, mostly under pKd 3.1 to 4
# Details: plain residues with an end cap or a label only (N-terminal biotin on a linker: ado-ado)
row,Binder,pKd
1,"PEYLGLDVPV [ERBB2, P04626]",below the threshold

# Target: T9, PDZD2_2, O15018
# Test: holdup assay
# Design: key: below the threshold = too weak to quantify, mostly under pKd 3.1 to 4
# Details: plain residues with an end cap or a label only (N-terminal biotin on a linker: ado-ado)
row,Binder,pKd
1,"PEYLGLDVPV [ERBB2, P04626]",below the threshold

# Target: Inadl_9, Q8NI35
# Test: holdup assay
# Design: key: below the threshold = too weak to quantify, mostly under pKd 3.1 to 4
# Details: plain residues with an end cap or a label only (N-terminal biotin on a linker: ado-ado)
# Sequence of Inadl_9, Q8NI35 (Q8NI35 1530-1615): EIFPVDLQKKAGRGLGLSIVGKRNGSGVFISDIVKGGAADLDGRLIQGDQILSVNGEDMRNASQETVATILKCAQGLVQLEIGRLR
row,Binder,pKd
1,"PEYLGLDVPV [ERBB2, P04626]",below the threshold

# Target: T10, HTRA4, P83105
# Test: holdup assay
# Design: key: below the threshold = too weak to quantify, mostly under pKd 3.1 to 4
# Details: plain residues with an end cap or a label only (N-terminal biotin on a linker: ado-ado)
row,Binder,pKd
1,"PEYLGLDVPV [ERBB2, P04626]",3.98

# Target: LNX1_3, Q8TBB1
# Test: holdup assay
# Design: key: below the threshold = too weak to quantify, mostly under pKd 3.1 to 4
# Details: plain residues with an end cap or a label only (N-terminal biotin on a linker: ado-ado)
# Sequence of LNX1_3, Q8TBB1 (Q8TBB1 500-596): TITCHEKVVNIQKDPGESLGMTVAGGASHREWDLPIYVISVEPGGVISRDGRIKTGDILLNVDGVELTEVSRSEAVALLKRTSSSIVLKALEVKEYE
row,Binder,pKd
1,"PEYLGLDVPV [ERBB2, P04626]",below the threshold

# Target: NHERF4_1, Q86UT5-2
# Test: holdup assay
# Design: key: below the threshold = too weak to quantify, mostly under pKd 3.1 to 4
# Details: plain residues with an end cap or a label only (N-terminal biotin on a linker: ado-ado)
# Sequence of NHERF4_1, Q86UT5-2 (Q86UT5 other isoform, or with tags, fused parts or gaps): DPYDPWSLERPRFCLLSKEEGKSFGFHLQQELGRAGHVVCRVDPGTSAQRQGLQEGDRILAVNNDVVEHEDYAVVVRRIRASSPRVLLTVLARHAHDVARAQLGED
row,Binder,pKd
1,"PEYLGLDVPV [ERBB2, P04626]",below the threshold

# Target: IL16_4, Q14005
# Test: holdup assay
# Design: key: below the threshold = too weak to quantify, mostly under pKd 3.1 to 4
# Details: plain residues with an end cap or a label only (N-terminal biotin on a linker: ado-ado)
# Sequence of IL16_4, Q14005 (Q14005 1229-1329): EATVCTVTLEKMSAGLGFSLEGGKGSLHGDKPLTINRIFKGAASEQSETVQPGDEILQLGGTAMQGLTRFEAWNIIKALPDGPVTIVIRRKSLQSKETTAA
row,Binder,pKd
1,"PEYLGLDVPV [ERBB2, P04626]",3.72

# Target: Inadl_3, Q8NI35
# Test: holdup assay
# Design: key: below the threshold = too weak to quantify, mostly under pKd 3.1 to 4
# Details: plain residues with an end cap or a label only (N-terminal biotin on a linker: ado-ado)
# Sequence of Inadl_3, Q8NI35 (Q8NI35 359-469): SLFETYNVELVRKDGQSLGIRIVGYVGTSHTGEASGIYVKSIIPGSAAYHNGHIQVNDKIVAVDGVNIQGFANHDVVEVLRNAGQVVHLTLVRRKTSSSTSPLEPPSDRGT
row,Binder,pKd
1,"PEYLGLDVPV [ERBB2, P04626]",3.48

# Target: NHERF4_4, Q86UT5
# Test: holdup assay
# Design: key: below the threshold = too weak to quantify, mostly under pKd 3.1 to 4
# Details: plain residues with an end cap or a label only (N-terminal biotin on a linker: ado-ado)
# Sequence of NHERF4_4, Q86UT5 (Q86UT5 464-550): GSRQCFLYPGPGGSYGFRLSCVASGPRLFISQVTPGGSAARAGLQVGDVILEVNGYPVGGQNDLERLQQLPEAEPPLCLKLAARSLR
row,Binder,pKd
1,"PEYLGLDVPV [ERBB2, P04626]",below the threshold

# Target: GRID2IP_1, A4D2P6
# Test: holdup assay
# Design: key: below the threshold = too weak to quantify, mostly under pKd 3.1 to 4
# Details: plain residues with an end cap or a label only (N-terminal biotin on a linker: ado-ado)
# Sequence of GRID2IP_1, A4D2P6 (A4D2P6 1-87): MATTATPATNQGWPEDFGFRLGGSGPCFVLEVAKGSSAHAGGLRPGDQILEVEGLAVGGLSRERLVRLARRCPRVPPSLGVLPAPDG
row,Binder,pKd
1,"PEYLGLDVPV [ERBB2, P04626]",below the threshold

# Target: T11, GRIP1_4, Q9Y3R0
# Test: holdup assay
# Design: key: below the threshold = too weak to quantify, mostly under pKd 3.1 to 4
# Details: plain residues with an end cap or a label only (N-terminal biotin on a linker: ado-ado)
row,Binder,pKd
1,"PEYLGLDVPV [ERBB2, P04626]",below the threshold

# Target: MAST2, Q6P0Q8
# Test: holdup assay
# Design: key: below the threshold = too weak to quantify, mostly under pKd 3.1 to 4
# Details: plain residues with an end cap or a label only (N-terminal biotin on a linker: ado-ado)
# Sequence of MAST2, Q6P0Q8 (Q6P0Q8 1099-1202): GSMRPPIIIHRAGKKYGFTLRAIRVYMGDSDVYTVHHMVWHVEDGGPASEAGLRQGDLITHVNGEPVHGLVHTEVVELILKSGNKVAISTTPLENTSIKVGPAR
row,Binder,pKd
1,"PEYLGLDVPV [ERBB2, P04626]",4.21

# Target: Inadl_6, Q8NI35
# Test: holdup assay
# Design: key: below the threshold = too weak to quantify, mostly under pKd 3.1 to 4
# Details: plain residues with an end cap or a label only (N-terminal biotin on a linker: ado-ado)
# Sequence of Inadl_6, Q8NI35 (Q8NI35 1058-1167): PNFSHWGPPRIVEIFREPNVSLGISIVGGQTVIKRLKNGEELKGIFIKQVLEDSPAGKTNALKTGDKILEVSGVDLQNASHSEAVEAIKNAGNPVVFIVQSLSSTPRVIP
row,Binder,pKd
1,"PEYLGLDVPV [ERBB2, P04626]",below the threshold

# Target: MAGI2_5, Q86UL8
# Test: holdup assay
# Design: key: below the threshold = too weak to quantify, mostly under pKd 3.1 to 4
# Details: plain residues with an end cap or a label only (N-terminal biotin on a linker: ado-ado)
# Sequence of MAGI2_5, Q86UL8 (Q86UL8 915-1017): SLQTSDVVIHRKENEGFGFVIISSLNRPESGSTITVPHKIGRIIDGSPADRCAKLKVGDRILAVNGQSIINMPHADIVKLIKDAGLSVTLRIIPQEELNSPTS
row,Binder,pKd
1,"PEYLGLDVPV [ERBB2, P04626]",below the threshold

# Target: FRMPD2_1, Q68DX3
# Test: holdup assay
# Design: key: below the threshold = too weak to quantify, mostly under pKd 3.1 to 4
# Details: plain residues with an end cap or a label only (N-terminal biotin on a linker: ado-ado)
# Sequence of FRMPD2_1, Q68DX3 (Q68DX3 770-861): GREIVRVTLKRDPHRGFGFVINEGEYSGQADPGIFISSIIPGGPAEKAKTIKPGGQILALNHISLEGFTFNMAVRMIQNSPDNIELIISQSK
row,Binder,pKd
1,"PEYLGLDVPV [ERBB2, P04626]",3.53
